Assays:
[1] = system: anti-Der f 1 MAb 6A8 (capture) and anti-Der f 1 MAb 4C1 (detection); test: Monoclonal Capture ELISA; format: binding
Description: (§1) Assays were carried out as follows. A microtiter plate as described in Example 5 was coated overnight at 4° C. with 100 ng/well of anti-Der f 1 protein monoclonal antibody 6A8, denoted herein as anti-Der f 1 MAb 6A8, provided by Dr. Martin Chapman. The plate was washed in the manner described above. The following proteins were then added to wells, having been diluted in Assay Buffer in a 2-fold dilution series, from 0.75 to 50 ng/well: Heska native Derf1, P. pastoris-expressed PDerf1303b, and E. coli-expressed PDerf1303c. After incubation for 1 hour at room temperature, plates were washed as described in Example 5. Then 100 μl per well of a 1:1000 dilution in Assay Buffer of biotinylated anti-Der f 1 monoclonal antibody 4C1, also denoted anti-Der f 1 MAb 4C1, provided by Dr. Martin Chapman, was added for 1 hour at room temperature. Plates were washed, streptavidin-HRP conjugate was added, and plates were developed as described in Example 5.

[2] = system: IgE from pooled mite-allergic human sera; test: Monoclonal Capture ELISA (Example 8B, Table 7); format: binding
Description: as §1
B. The Der f 1 proteins described in Example 8B were reacted as described in Example 6 with a pool of serum samples collected from 16 mite-allergic human patients.

B1: PDerf1303b: Recombinant Der f 1 expressed by P. pastoris HCY215 from nDerf1909b (pro-form, SEQ ID NO:29); actually secreted as mature form (protein, listed as Dermatophagoides farinae)
chain: RPASIKTFEEFKKAFNKNYATVEEEEVARKNFLESLKYVEANKGAINHLSDLSLDEFKNRYLMSAEAFEQLKTQFDLNAETSACRINSVNVPSELDLRSLRTVTPIRMQGGCGSCWAFSGVAATESAYLAYRNTSLDLSEQELVDCASQHGCHGDTIPRGIEYIQQNGVVEERSYPYVAREQRCRRPNSQHYGISNYCQIYPPDVKQIREALTQTHTAIAVIIGIKDLRAFQHYDGRTIIQHDNGYQPNYHAVNIVGYGSTQGDDYWIVRNSWDTTWGDSGYGYFQAGNNLMMIEQYPYVVIM
For B1, the “OD, protein captured by MAb 6A8 and detected by MAb 4C1” value (shortened to “OD, protein captured”) ([1]; 0.75 ng protein per well) was 405 OD, the “OD, protein captured” value ([1]; 1.5 ng protein per well) was 916 OD and the “OD, protein captured” value ([1]; 2.5 ng protein per well) was 2088 OD. For the same molecule, the “OD, protein captured” value ([1]; 3.1 ng protein per well) was 1544 OD, the “OD, protein captured” value ([1]; 6.25 ng protein per well) was 1961 OD and the “OD, protein captured” value ([1]; 25 ng protein per well) was 2156 OD. The “OD, protein captured” value ([1]; 50 ng protein per well) was 2148 OD, the “OD, Monoclonal Capture ELISA” value ([2]; 0.39 ng protein per well) was 434 OD and the “OD, Monoclonal Capture ELISA” value ([2]; 0.78 ng protein per well) was 871 OD. For the same molecule, the “OD, Monoclonal Capture ELISA” value ([2]; 1.55 ng protein per well) was 1399 OD, the “OD, Monoclonal Capture ELISA” value ([2]; 3.1 ng protein per well) was 2103 OD and the “OD, Monoclonal Capture ELISA” value ([2]; 6.25 ng protein per well) was 2463 OD. The “OD, Monoclonal Capture ELISA” value ([2]; 12.5 ng protein per well) was 2388 OD and the “OD, Monoclonal Capture ELISA” value ([2]; 25 ng protein per well) was 2389 OD.

— patent publication US8465945B2, “Method for production and use of mite group 1 proteins” (Merck Patent GmbH, priority 1999, dated 2013)
